For data set [1], the system named is CON1C(=O)N(c2cc(C(F)(F)F)ccn2)C(O)[C@@H]1C. In words: UDP-Glo glucosyl transferase assay, purified enzyme. The following applies: other: DMSO reagent blank as control, pH 7.5. The class given is biochemical, Zea mays. How it is done:
(§1) Glucosyl transferase activity is assayed via measurement of acceptor substrate-dependent production of UDP from ultrapure UDP-glucose using the Promega UDP-Glo™ method and according to the manufacturer's instructions. Assays are run in 96 well microtiter plates.
(§2) Enzyme, typically at a stock concentration of ˜2 mg/ml is diluted to an appropriate concentration in 50 mM K^+ Hepes buffer at pH7.5 containing 0.5 mg/mL bovine serum albumin (BSA) and 5 ul aliquots of this diluted enzyme added to each well of a Perkin Elmer white ½ area 96 well plate. […] Assays are run for an appropriate time (usually 10 to 60 min) so that the amount of UDP formed lies within the most nearly linear part of the UDP standard curve and are stopped with the addition and mixing of 25 ul UDP-Glo™ detection reagent (prepared as described below). Plates are then incubated at room temperature for 60 minutes and then read in a luminescence plate reader (Perkin Elmer Envision 2130 Multilabel Reader). A UDP standard curve is run alongside each set of assays and reagent blank control assays run with DMSO in place of test herbicide. Typically, 300 pmol of UDP corresponds to a Relative Luminescence Unit (RLU) reading of about 1.5E7 and the response curve between 0 and 600 pmol is fitted to a polynomial function (see for example FIG. 2).
(§3) The UDP-Glo™ reagents are made up and used according to the manufacturer's instructions. Thus, Nucleotide Detection Buffer and ATP are combined to make nucleotide detection reagent (NDR) dispensed into aliquots and frozen to be freshly thawed before use.
(§4) Km and kcat values in respect of UDP-glucose are derived by carrying out experiments to measure initial rates over a suitable range of concentrations of UDP glucose out at a fixed near saturating concentration of acceptor substrate. Best fit values of kcat, Km and kcat/Km are obtained by direct fitting of the data to the Michaelis-Menten equation using Graphpad Prism™ software.
(§5) Variants of C-terminally his tagged SEQ ID No:1 (w/t bx9 from Zea mays), exemplified as SEQ ID 16-30, were cloned, purified and assayed as described in Example 1. FIG. 4 depicts the data from some experiments to determine the kinetic parameters of some of these variants in respect of herbicide VI and table 12 summarizes the estimates of kinetic parameters obtained from further such experiments in respect of a range of herbicides.

Data set [2] relates to CN1CC(O)N(c2cc(C(F)(F)F)ccn2)C1=O. The data set is described as above. In kind it is biochemical, Zea mays. The note with it: other: DMSO reagent blank as control, pH 7.5.
The test system of data set [3] is CON1C(=O)N(c2cc(C(F)(F)F)c(Cl)cn2)C(O)C1C. Described as above. The class given is biochemical, Zea mays. The note with it: other: control = inactive H24A mutant of bx9 (asterisk), pH 7.5.
Data set [4] concerns Cc1cnc(N2C(=O)N(C)CC2O)cc1C(F)(F)F. The data set is described as above. The class given is biochemical, Zea mays. The following applies: other: control = inactive H24A mutant of bx9 (asterisk), pH 7.5.
Data set [5] concerns CN1CC(O)N(c2cc(C(F)(F)F)c(Cl)cn2)C1=O. The data set is described as above. The class given is biochemical, Zea mays. The following applies: other: control = inactive H24A mutant of bx9 (asterisk), pH 7.5.
Data set [6] deals with CN1CC(O)N(c2cc(C(F)(F)F)ccn2)C1=O. Described as above. The class given is biochemical, Zea mays. The note with it: other: DMSO reagent blank as control, pH 7.5. As for the experimental part: as §1, §2, §3, §4, §5
The source holds these as a separate data set.

In data set [7] the test system is CON1C(=O)N(c2cc(C(F)(F)F)ccn2)C(O)[C@@H]1C. The description is as above. In kind it is biochemical, Zea mays. The following applies: other: DMSO reagent blank as control, pH 7.5. This is another data set of the same source.
Data set [8] in a line: LC/MS plate assay of crude E. coli extracts, Zea mays bx8 derivatives, herbicide V. The following applies: LC/MS. The class given is biochemical. As for the experimental part: In an alternative method for assaying the various enzymes, the test glucosyl transferase enzyme is reacted with substrates exactly as above except that the assay is stopped by adding an equal volume of acetonitrile. Alternatively 50 or 100 μl samples from assay reactions are added to 500 μl ethyl acetate to stop the reaction. In this case samples are then vortexed and 400 μl of the ethyl acetate partition removed, dried down, and resuspended in 100 μl 80:20 acetonitrile/water. The formation of product gluco side and/or disappearance of substrate test herbicide is then monitored directly by LC/MS. Samples are analyzed by LC-MS using an Agilent 1290 liquid chromatography system and Thermo Q-Exactive mass spectrometer. The chromatography is achieved on a Waters Acquity C18 BEH (50×2.1 mm) 1.7 μm particle size column, using a 6 minute gradient run of Water (0.2% formic acid) and Acetonitrile. The Q-Exactive is operated in positive ionisation electrospray mode, using Full scan-AIF mode, at 35,000 resolution, between 100-800 m/z. All analytes are identified from the full scan data to within at least 5 ppm accuracy of their predicted pseudo-molecular ion [M+H]^+ m/z value. In order to obtain quantitative data standard curves are run using herbicides and herbicide glucosides synthesized as standards. Where these synthetic glucosides were not available the LC/MS assay could only be used to provide relative data.
The glucosyl transferase activities of the mutant bx8-derived polypeptides expressed in these strains were initially assayed versus herbicide V as described in Example 1. The partly purified C-terminally his tagged w/t bx8 enzyme (SEQ ID No: 2) catalyzed glucosyl transfer to herbicide V at a low rate estimated to be less than about 0.002/s at 1 mM herbicide V which, because of a relatively high background of UDP formation in the DMSO (no substrate reagent control) was difficult to quantify using the luminescence assay. Thus further assays were run by LC/MS using which technique the formation of an O-beta glucosyl glucoside of herbicide V could more easily be confirmed but only quantified in a relative sense. Thus the various derivatives of C-terminally his tagged Zea mays bx8 SEQ ID No:2 were cloned and expressed in E. coli BL21 (DE3) as described in Example 1 and assayed in plates as crude extracts, as in Example 2, but monitored by LCMS rather than the luminescence assay.
The different stereoisomer standards chromatographed distinctly on LC (FIGS. 8A-8H). By comparing the LC elution profiles of the standards with the enzyme products at the correct mass it was possible to characterize which polypeptides catalyzed the formation of which O-glucosides. Assay samples and glucoside conjugate standards are run using the identical chromatographic conditions to allow us to identify the conjugate isomer formed in the assay. In short, as would be expected for inverting glucosyl transferases all of the bx enzymes tested produced beta glucoside products (from the alpha-UDP-glucose substrate) from all herbicides tested. But there can be subtle variations between enzymes in stereochemistry of the products made at other chiral centers.

By Km is commonly meant the substrate concentration at which the rate is half of its maximum. For orientation: kcat means the maximal rate divided by the concentration of active sites. Usually kcat/Km stands for the turnover number divided by the Michaelis constant. As for “SEQ ID 25, mutant of Zea mays bx9 glucosyl transferase (Zea mays; A334R/M279F/S117C)”, in data set [1], the Michaelis-Menten constant (Km) was 8.5 µM, the kcat worked out at 3.24 s⁻¹ and the catalytic efficiency (kcat/Km) was determined as 380000 M⁻¹ s⁻¹.
With “SEQ ID NO 21, mutant of Zea mays bx9 glucosyl transferase (Zea mays; A334K/F21Y/L194V/M279F/S117V)”, in data set [2], the Km is 57.3 µM, the kcat was found to be 1.86 s⁻¹ and the kcat/Km amounted to 32500 M⁻¹ s⁻¹.
With “SEQ ID NO 16, zmBX9 S117V, M279F, A334R mutant (Zea mays; A334R/M279F/S117V)”, in data set [1], the Km is 2.8 µM, the kcat was found to be 2.45 s⁻¹ and the kcat/Km is 880000 M⁻¹ s⁻¹.
On to “SEQ ID NO 22, mutant of Zea mays bx9 glucosyl transferase (Zea mays; A334K/F21Y/M279F/S117V/T220P)”, for which the Km in data set [3] was found to be 20 µM; in data set [4] it was 200 µM; in data set [2], 14.7 µM; in data set [5] it was 320 µM. The kcat turned out to be 1.68 s⁻¹ in data set [3], 1.16 s⁻¹ in data set [4], 1.32 s⁻¹ in data set [2] and 0.8 s⁻¹ in data set [5]. Further, the kcat/Km in data set [3] worked out at 68900 M⁻¹ s⁻¹; in data set [4] it was 5950 M⁻¹ s⁻¹; in data set [2] it was 89700 M⁻¹ s⁻¹; in data set [5], 2500 M⁻¹ s⁻¹.
On to “SEQ ID 24, mutant of Zea mays bx9 glucosyl transferase (Zea mays; A334K/L194C/M279F/S117V)”, for which, in data set [6], the Km came to 45.5 µM, the kcat turned out to be 2.61 s⁻¹ and the kcat/Km worked out at 57500 M⁻¹ s⁻¹.
On to “SEQ ID NO 17, zmBX9 S117V, M279F, A334K mutant (Zea mays; A334K/M279F/S117V)”, for which the Km in data set [3] came to 190 µM; in data set [4], 800 µM; in data set [2] it was 109.7 µM; in data set [5], 10530 µM; in data set [7], 2.2 µM. For the same molecule, the kcat in data set [3] was 2.08 s⁻¹; in data set [4], 0.38 s⁻¹; in data set [2], 0.852 s⁻¹; in data set [5], 2.04 s⁻¹; in data set [7], 2.08 s⁻¹. For the same molecule, the kcat/Km was found to be 11200 M⁻¹ s⁻¹ in data set [3]; 480 M⁻¹ s⁻¹ in data set [4]; 7800 M⁻¹ s⁻¹ in data set [2]; 190 M⁻¹ s⁻¹ in data set [5]; 938000 M⁻¹ s⁻¹ in data set [7].

B1: SEQ ID NO: 51: zmBX8/zmBX9 hybrid polypeptide (bx8/bx9 hybrid 2) (protein)
chain: MAASCGGRVVVFPFPFQGHFNPVMRLARALHARGVGITVFHTAGARAPDPADYPADYRFVPVPVEVAPELMASEDIAAIVTALNAACEAPFRDRLSALLSAADGEAGEAGGRVRCVLTDVSWDAVLSAARGLGVPALGVMTASAATFRVYMAYRTLVDKGYLPVREERKDDAVAELPPYRVKDLLRHETCDLEEFADLLGRVIAAARLSSGLIFHTFPFIEAGTLGEIRDDMSVPVYAVAPLNKLVPAATASLHGEVQADRGCLRWLDAQRARSVLYVSFGSMAAMDPHEFVELAWGLADAGRPFVWVVRPNLIRGFESGALPDGVEDRVRGRGVVVSWAPQEEVLAHPAVGGFFTHCGWNSTVEAVSEGVPMICHPRHGDQFGNMRYVCDVWKVGTELVGEQLERGQVKAAIDRLFGTKEGEEIKERMKEFKIAAAKGIGIGVDVDETASPRTDLTDLVDLIKSF
modifications: Hybrid sequence between Zea mays Bx8 and Bx9 sequences
Consider B1, for which the “activity with herbicide V” value in data set [8] is “active”.

These data come from patent US20200270588A1, “GLUCOSYL TRANSFERASE POLYPEPTIDES AND METHODS OF USE” (Syngenta Participations AG, priority 2017, published 2020).
